Results on one molecule are retold here after publication PMC12032302 (2025).

The target of the test is HA-NEK7 (mouse NIMA-related kinase 7, wild type) (mouse, UniProt Q9ES74 1-302). The experiment in a line: BLI.
HA-NEK7 (mouse NIMA-related kinase 7, wild type), sequence (Q9ES74 whole entry): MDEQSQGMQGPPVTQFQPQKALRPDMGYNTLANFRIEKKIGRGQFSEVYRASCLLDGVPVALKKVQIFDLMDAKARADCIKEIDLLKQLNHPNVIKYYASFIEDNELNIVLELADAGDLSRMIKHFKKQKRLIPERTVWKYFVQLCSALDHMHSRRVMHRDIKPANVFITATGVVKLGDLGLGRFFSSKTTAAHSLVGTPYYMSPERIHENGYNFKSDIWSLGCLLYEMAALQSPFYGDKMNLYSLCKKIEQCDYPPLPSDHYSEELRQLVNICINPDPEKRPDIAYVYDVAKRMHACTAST

Broadly, the Kd is a measure of binding affinity in units of concentration. Read a low Kd as higher affinity. KLVALKTNGDGNCLMHAACQYMWGVQDTD [A20-derived peptide P-II] showed a Kd of 197 µM.
